Experimental data reported in patent US20240124607A1.

Biological target: human CEACAM5 on cells (human) (UniProt P06731)
Experiment: flow cytometry, hCEACAM5-B16F10 cells

Chain of human CEACAM5 on cells (human) (P06731 35-685 limits assumed): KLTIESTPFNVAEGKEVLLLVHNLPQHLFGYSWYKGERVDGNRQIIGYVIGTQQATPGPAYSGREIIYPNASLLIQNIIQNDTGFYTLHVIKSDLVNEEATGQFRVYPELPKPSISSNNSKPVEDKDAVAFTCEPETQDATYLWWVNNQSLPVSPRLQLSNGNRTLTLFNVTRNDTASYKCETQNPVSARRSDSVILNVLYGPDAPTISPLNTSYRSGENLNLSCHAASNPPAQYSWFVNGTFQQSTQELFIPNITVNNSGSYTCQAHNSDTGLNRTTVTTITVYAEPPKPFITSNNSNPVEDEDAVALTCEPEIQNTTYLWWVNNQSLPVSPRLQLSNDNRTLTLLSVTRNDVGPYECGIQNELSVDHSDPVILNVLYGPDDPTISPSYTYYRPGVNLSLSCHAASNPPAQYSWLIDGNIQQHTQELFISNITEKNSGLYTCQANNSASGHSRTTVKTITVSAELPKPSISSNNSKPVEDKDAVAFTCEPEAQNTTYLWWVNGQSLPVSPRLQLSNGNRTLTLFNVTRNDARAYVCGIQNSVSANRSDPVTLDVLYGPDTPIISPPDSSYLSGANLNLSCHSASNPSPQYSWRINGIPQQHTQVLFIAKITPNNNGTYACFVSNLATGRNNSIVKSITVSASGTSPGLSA

B1: mAB0621 mouse surrogate duobody TriNKET (bispecific antibody, part only; not given: NKG2D arm, mouse constant regions, V domains shown, part only)
VH: QVQLVQSGAEVKKPGASVKVSCKASGYTFTAYTIHWVRQAPGQCLEWMGYINPSSGYTEYNQKFKDRTTLTADTSISTAYMELSRLRSDDTAVYYCTREGGLLWFDYWGQGTLVTVSS
VL: DIVMTQSPDSLAVSLGERATINCKSSHSLLYGNFQNNYLAWYQQKPGQPPKLLIYWASTRESGVPDRFSGSGSGTDFTLTISSLQAEDVAVYYCQQYYSYPYTFGCGTKLEIK
  EC50: 21.8 nM
